Laboratory results as given in patent US5846747A, “Method for detecting glucagon-like peptide-1 antagonists and agonists” (Novo Nordisk A/S, priority 1993, dated 1998).

Target: T1, rat GLP-1 receptor (Rattus norvegicus, UniProt P32301)
T1 construct: expressed in transfected cells; host or cells: COS cells
T1 sequence (P32301 22-463): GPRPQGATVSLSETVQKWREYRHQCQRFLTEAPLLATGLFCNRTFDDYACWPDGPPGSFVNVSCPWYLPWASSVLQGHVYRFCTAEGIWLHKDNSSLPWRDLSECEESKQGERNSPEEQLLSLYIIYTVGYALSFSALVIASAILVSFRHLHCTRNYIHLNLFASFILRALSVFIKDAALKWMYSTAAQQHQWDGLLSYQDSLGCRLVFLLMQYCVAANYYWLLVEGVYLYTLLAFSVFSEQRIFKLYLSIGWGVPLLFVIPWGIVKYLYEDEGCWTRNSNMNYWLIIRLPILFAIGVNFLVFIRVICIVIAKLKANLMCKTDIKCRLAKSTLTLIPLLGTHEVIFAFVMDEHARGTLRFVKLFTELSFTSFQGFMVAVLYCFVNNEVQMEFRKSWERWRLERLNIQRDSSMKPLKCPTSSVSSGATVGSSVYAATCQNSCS
Assay: Displacement of 125I-GLP-1 binding to COS cells transfected with the rat GLP-1 receptor cDNA
Settings: 20 pM 125I-GLP-1, increasing concentrations of cold peptide

Row | Substance | displacement of GLP-1 binding (in words)
1 | vasoactive intestinal peptide [VIP] | did not displace binding
2 | secreting: peptide hormone of related structure (probably secretin) | did not displace binding
3 | gastric inhibitory peptide [GIP] | did not displace binding
